In the supplement of paper PMC9170038:

Tested on: MS2 coat protein
Assay: apparent KD of MS2 coat protein; designed switch direction (-1 OFF switch, 1 ON switch): -1; higher = weaker reporter binding
Summary of the method: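 Each step of the titration lasted 0.8–1.5 h at the lowest concentration and 10–20 min at the highest. The protein, SNAP-549-labelled MS2 coat protein, went from 0.7 or 1.5 nM doubling to 3 µM over RNA switches transcribed on Illumina chips by stalled E. coli RNA polymerase. Normalised cluster fluorescence was curve-fitted, and the per-design median over clusters is given as apparent KD.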

[1] = input ligand: microRNA oligo, concentration not stated
[2] = Eterna round: R95, input ligand: FMN 200 uM
[3] = Eterna round: R95, input ligand: microRNA oligo, concentration not stated
[4] = Eterna round: R95, input ligand: none

Sequence | apparent KD of MS2 coat protein (input ligand: FMN 200 uM) | apparent KD of MS2 coat protein [1] | apparent KD of MS2 coat protein (input ligand: none) | apparent KD of MS2 coat protein [2] | apparent KD of MS2 coat protein [3] | apparent KD of MS2 coat protein [4]
AACGUACGUCGAGGAUAUGACGAGAAAUAUGAGUCAGAAGGCGACUGGUACAUGAGGAUCACCCAUGUUGCGACCAUGUGGCUU [Eternabot solution 23] (Eterna round: R96, puzzle: Exclusion NG 1) | 53.7 nM | 13.4 nM | 17.9 nM | – | – | –
GCGAGCUGAGGAUAUACAUGAGGAUCACCCAUGUAUUUUGGAAGACUGCCUCCUGCACGUAGAAGGCGGCUCUU [Eternabot (L2) Solution 35] (Eterna round: R97, puzzle: Exclusion 3) | 24.4 nM | – | 24.7 nM | – | – | –
AAUCCACAUGAGGAUCACCCAUGUGAGGAUAUGAUACUAUGUACUUCGGUACAUAGUAUCAGAAGGCACAUAAA [Ex1-3: 51] (Eterna round: R96, puzzle: Exclusion 1) | 153 nM | 25.8 nM | 27.8 nM | – | – | –
CCCAUGUCAGGAUAUUAAUUGGACGGGAAAUCCCGCCCACUUGAGAAGGGACAUGAGGAUCACCCAUGUAAAAC [Esatedbe] (Eterna round: R97, puzzle: Exclusion 4) | 54.7 nM | – | 385 nM | – | – | –
AAGAAACAUGAGGAUCACCCAUGUGAGGAUAUGAAAAAGAAAAGAAAAGAAAGAAUAAUCAGAAGGCACAAAGG [Mat - Mod of Hog D11] (puzzle: Exclusion 1) | – | – | – | 50.7 nM | 34.3 nM | 40.1 nM
GCAAGCUUUUGCUCGUCUUACAUGAGGAUCACCCAUGUCGGGUGCUUGCUUGCGUCCGGCGUCUGGGCCGUGGCGGU [-31.9, -55.1 kcal, A 10%] (Eterna round: R97, puzzle: Sensor, turn-off variant 1) | 22.2 nM | – | 21.6 nM | – | – | –
CGUGACUCAGGAUAUCUAUUAUGUCACAUGAGGAUCACCCAUGUCCAGCGAAAGCUGGAGGGAGAAGGGAGUCACG [Fiskers Ex 5 - 45] (puzzle: Exclusion 5) | – | – | – | – | 118 nM | –
AUUGUUUAUGUAGGAUAUGCCUGGCGUGCCUUUGCAGAAGGACAUGAGGAUCACCCAUGUAUUGCGGUCUGCGUUCAGAUCGCG [salish99_ExNG1_r4_034] (Eterna round: R96, puzzle: Exclusion NG 1) | 46.9 nM | 22.5 nM | 27.4 nM | – | – | –
UAAGGUCGUCAAUACCUAACCACAUGAGGAUCACCCAUGUCUGAGGAUAUGAAGGCGGCCCGCCAUUAGAAGGCAGCAAGGGAA [Ustiarmadi] (Eterna round: R96, puzzle: Exclusion NG 3) | 13.2 nM | 7.89 nM | 14.4 nM | – | – | –
AAGAAACAUGAGGAUCACCCAUGUGAGGAUAUGAGAAAGAAAAGAAAAGAAAGAAGAAUCAGAAGGCACAAAGG [salish99-ex1_r3_032] (puzzle: Exclusion 1) | – | – | – | 117 nM | 77.7 nM | 116 nM
AAGAAACAUGAGGAUCACCCAUGUGAGGAUAUGAGUAAGAAAAGAAAAGAAAGAAGAUUCAGAAGGCACAAAGG [salish99-ex1_r3_057] (puzzle: Exclusion 1) | – | – | – | 94.7 nM | 58.1 nM | 73.2 nM
UUAUUCAGAGGAUAUGCGCAUAGAUAAGACUUUUUUUUUUAACAUGAGGAUCACCCAUGUAGAAGGCUGUAAUU [Ex2 #55] (Eterna round: R97, puzzle: Exclusion 2) | 18.1 nM | – | 21 nM | – | – | –
CUACUCGUUGUGAGGAUAUCGUUUUCGUCACGGAUCGAGAAGGCACAUGAGGAUCACCCAUGUUUGAUGUGGAU [JR_BMOE4_Sub091] (puzzle: Brourd's mod of Exclusion 4) | – | – | – | – | 30.9 nM | –
AAGAAACAUGAGGAUCACCCAUGUGAGGAUAUGAUAUGCUAAGCGUAAGCUUAGUAUAUCAGAAGGCACAAAGG [Salishxlusion 1 - Jieux - Exclusion 1] (Eterna round: R97, puzzle: Exclusion 1) | 319 nM | – | 120 nM | – | – | –
CUUAGCCUAAAAUCACGCAAGCUUUUUGCUUGUCUAAAGACAUGAGGAUCACCCAUGUCCGGGCUGAACUUAUGGAA [Atqusoen] (puzzle: Sensor v3, turn-off variant 2) | – | – | – | 17.7 nM | 18.1 nM | 16 nM
AAUUAUUAUUGAGGAUAUCGUAUUGAAACAAUACGAGAAGGCGGAAUAAACAUGAGGAUCACCCAUGUGAGCCUGAUGCUUAUG [Ex NG1 #43] (Eterna round: R96, puzzle: Exclusion NG 1) | – | 21.1 nM | – | – | – | –
AAAAUGUAAGGAUAUAGCCGGAACAAAGGGUCAAUAACCGGCUAGAAGGUACAUGAGGAUCACCCAUGUAAGAA [Excls4-V] (puzzle: Exclusion 4) | – | – | – | 19.4 nM | 13.3 nM | 15.8 nM

Sequence | apparent KD of MS2 coat protein (input ligand: FMN 200 uM) | apparent KD of MS2 coat protein [1] | apparent KD of MS2 coat protein (input ligand: none) | apparent KD of MS2 coat protein [2] | apparent KD of MS2 coat protein [3] | apparent KD of MS2 coat protein [4]
GGAAUACAUGAGGAUCACCCAUGUAAGGAUAUGCUGAAUAACACGGAAUUAACGUGCAGCAGAAGGUACAAAUG [Mat - Mod of my Eli Mod D44] (puzzle: Exclusion 1) | – | – | – | 105 nM | 112 nM | 93.2 nM
GGAAUGUAAGGAUAUCCGAAAGGCGAGCGAAAGCGAGCAAAGGAGAAGGUACAUGAGGAUCACCCAUGUAAGGG [AK-MS2ROC-r4-exclusion4-11.3] (Eterna round: R97, puzzle: Exclusion 4) | 163 nM | – | 513 nM | – | – | –
AAAUUAGCAAGUAGAUCCGACAUGAGGAUCACCCAUGUAAUCUAAUAUUACGCUGCACGAAAGUGCGCUCGUCUUAG [Sensor-V1 #14] (Eterna round: R97, puzzle: Sensor, turn-off variant 1) | 416 nM | – | 470 nM | – | – | –
CGAUGUCUUCGGACAUCGAACAUGAGGAUCACCCAUGUAAUGAGCAGAUCCUCAUGCAAGCUUUUUGCUCGUCUUAU [Sensor v3 - turn-off variant 1 - 45] (puzzle: Sensor v3, turn-off variant 1) | – | – | – | 14 nM | 9.69 nM | 16.6 nM
GAUUCGGGAGGAUAUACAUGAGGAUCACCCAUGUAUAUAUAAUAUAAUAAAUUAAAAUGUAGAAGGUUUGGGUC [-13.5, -9.6 kcal, 38% A] (Eterna round: R97, puzzle: Exclusion 3) | 22.8 nM | – | 23.2 nM | – | – | –
UGCCGGCAUGUAAGGAUAUCCAGGAGAUGUAGAUCGGAGAAGGUACAUGAGGAUCACCCAUGUAUUCCAAUAAA [BmEX4 C.19] (Eterna round: R97, puzzle: Brourd's mod of Exclusion 4) | 18 nM | – | 18.5 nM | – | – | –
AUCAGCUCGUGAGGAUAUACAUGAGGAUCACCCAUGUGGUCAAUAGCAGCUUCGGCUGCAUACAUGUAGAAGGCACGAGCUGAU [ENG2/7-A2] (Eterna round: R96, puzzle: Exclusion NG 2) | 36.6 nM | 58.5 nM | 30.1 nM | – | – | –
UUAUAACAUGAGGAUCACCCAUGUUAGGAUAUCAGGUACGAGCGCCGUGCUCAGGCCCUGAGAAGGAGCAUGGC [Eternabot (L1) Solution 36] (Eterna round: R97, puzzle: Exclusion 1) | 14.9 nM | – | 18.6 nM | – | – | –
AAUUAGUGAGGAUAUACUAACAGUGAUAGUAGAUAGUGGAUGUAGAAGGCACAUGAGGAUCACCCAUGUUAUAA [EX4 #51] (Eterna round: R97, puzzle: Exclusion 4) | 39.1 nM | – | 33.5 nM | – | – | –
GGGAGGGAUACAGGAUAUAUGACAUGAGGAUACAUGAGACAUACAAACAUGAGGAUCACCCAUGUAUAGAAGGGUAAGGGAGGG [Another guess] (Eterna round: R96, puzzle: Exclusion NG 2) | – | 126 nM | – | – | – | –
CCUCCACAUGAGGAUCACCCAUGUCAGGAUAUCGUGCGCGCGUUUUCGGUCUUUCGCGCGAGAAGGGACGACUG (puzzle: Exclusion 1) | – | – | – | – | 24.1 nM | –
GAUGAGCAUGUCAGGAUAUCCACUCUAAUAAAACAGGAGAAGGGACAUGAGGAUCACCCAUGUUCUAGACAUGA [Latealedi] (puzzle: Brourd's mod of Exclusion 4) | – | – | – | 14.5 nM | 13.1 nM | 14 nM
GUAUGUGAGAGAGGAUAUCGUGUACAAAGUACACGAGAAGGCUUCACAUGAGGAUCACCCAUGUACCGAGGUGAAACACCUUGA [Omei Exc(NG)1 Bv9] (Eterna round: R96, puzzle: Exclusion NG 1) | 1870 nM | 298 nM | 423 nM | – | – | –
UCCUGACAUGAGGAUCACCCAUGUGAGGAUAUGUGGAUCGAGACAACUCUCGGUCCGUGCAGAAGGCACAGGGC [EX1 A.20] (Eterna round: R97, puzzle: Exclusion 1) | 28.1 nM | – | 20.3 nM | – | – | –
AAGGAUAGAGGAUAUACAUAGAUACAGAUUCAUGUGGAACUACAUGAGGAUCACCCAUGUAGAAGGCUAUCCUA [Fiskers Ex 2 - 9] (puzzle: Exclusion 2) | – | – | – | – | 35.9 nM | –
AUGUGACAUGAGGAUCACCCAUGUCAGGAUAUUUCCAAAAUAAAAUAAAACCGCGUGGAAAGAAGGGACGUGGU [EX1 A.8] (Eterna round: R97, puzzle: Exclusion 1) | 23.4 nM | – | 21.7 nM | – | – | –
ACAAGCUUUAGGCGUGUGAACAUGAGGAUCACCCAUGUAUUUUUGGUUAGGAGUUCUGUAAGGGAUGCUCGUCUUAU [JR_SWV3TOV1_Sub091] (puzzle: Sensor v3, turn-off variant 1) | – | – | – | 42.2 nM | 55.1 nM | 48.9 nM
